Data published in article PMC6354225, “Synthesis and Preclinical Characterization of the PSMA-Targeted Hybrid Tracer PSMA-I&F for Nuclear and Fluorescence Imaging of Prostate Cancer” (Journal of Nuclear Medicine, 2019).

Tests used:
[1] = set-up: method as in PMID 28721307; conditions: cited from earlier work
[2] = biological target: human serum albumin (HSA) (Homo sapiens, UniProt P02768); test: HSA binding by gradient high-performance liquid chromatography method; assay type: in vitro ADME; conditions: plasma
Protocol: The lipophilicity of ^68Ga- and ^177Lu-PSMA-I&F was determined via a modified shake-flask method as previously described ([38]). Plasma protein binding of both tracers was determined using 2 alternative methods, that is, incubation in fresh human plasma and subsequent ultrafiltration ([20]) and a previously established gradient high-performance liquid chromatography method for the quantification of human serum albumin (HSA) binding ([41],[42]).

[3] = tested on: PSMA-positive LNCaP cells; test: Fluorescence microscopy of ligand internalization, PSMA-positive cells; assay type: cell-based; conditions: 25 nM, 60 min, 37°C
Protocol: Competitive binding experiments (IC50) were performed in analogy to a previously published protocol ([38]) using LNCaP cells and (^125I-BA)KuE as a standard radioligand. Internalization kinetics of ^68Ga-PSMA-I&F and ^177Lu-PSMA-I&F (2 nM) were investigated in dual-tracer internalization assays using PSMA-expressing LNCaP cells and (^125I-BA)KuE (0.1 nM) as an internal reference. To differentiate between membrane-bound and internalized activity, an acid wash (50 mM NaOAc in saline, pH 4.5) was performed prior to lysis of the cells (1N NaOH) and quantification of internalized activity (lysate) using a γ-counter. […] For fluorescence microscopy, PSMA-positive LNCaP and PSMA-negative PC3 cells (seeded on glass cover slips) were incubated with the respective PSMA-I&F analog (100 or 25 nM) in the absence (total binding/internalization) or presence (nonspecific binding/internalization) of 10 μM 2-PMPA at 37 °C for 5 or 60 min. […] Ligand internalization was visualized using a Keyence BZ-9000 fluorescence microscope equipped with Cy5 (620/60 nm excitation, 700/75 nm emission), DAPI-BP (370/50 nm excitation, 447/60 nm emission), and GFP-BP (472.5/30 nm excitation, 520/35 nm emission) filters.

LNCaP xenografts = test: Intraoperative / ex vivo fluorescence imaging of LNCaP xenografts; assay type: in vivo, CB17 SCID mice; conditions: 2 nmol, 1 h after injection, Dino-Lite microscope and Firefly laparoscope
Protocol: Fluorescence imaging (intraoperative/ex vivo) of LNCaP xenografts in CB17 SCID mice (1 h after injection) was performed using 2 different instrumental setups: a handheld digital microscope for Cy5 (Dino-Lite Edge AM4115T-DFRW; AnMo Electronics Corp.) and DinoCapture 2.0 software (AnMo Electronics Corp.); and a 0°Firefly laparoscope that is compatible with the surgical robotic da Vinci Si system (Intuitive Surgical Inc.), using a fluid light cable for target illumination (495 FR; KARL STORZ Endoskope GmbH&Co.KG) and a bandpass filter (Edmund Optics Inc.) to isolate the Cy5 emission. Images were captured from the unprocessed Firefly video feed. For instrumental details see supplemental data.

[4] = set-up: method as in earlier work; conditions: cited from earlier work
LNCaP tumors = conditions: in vivo; cited from earlier work
[5] = tested on: tumor xenograft (PC-3 PIP); conditions: in vivo; cited from earlier work

Sequence of human serum albumin (HSA) (P02768 25-609): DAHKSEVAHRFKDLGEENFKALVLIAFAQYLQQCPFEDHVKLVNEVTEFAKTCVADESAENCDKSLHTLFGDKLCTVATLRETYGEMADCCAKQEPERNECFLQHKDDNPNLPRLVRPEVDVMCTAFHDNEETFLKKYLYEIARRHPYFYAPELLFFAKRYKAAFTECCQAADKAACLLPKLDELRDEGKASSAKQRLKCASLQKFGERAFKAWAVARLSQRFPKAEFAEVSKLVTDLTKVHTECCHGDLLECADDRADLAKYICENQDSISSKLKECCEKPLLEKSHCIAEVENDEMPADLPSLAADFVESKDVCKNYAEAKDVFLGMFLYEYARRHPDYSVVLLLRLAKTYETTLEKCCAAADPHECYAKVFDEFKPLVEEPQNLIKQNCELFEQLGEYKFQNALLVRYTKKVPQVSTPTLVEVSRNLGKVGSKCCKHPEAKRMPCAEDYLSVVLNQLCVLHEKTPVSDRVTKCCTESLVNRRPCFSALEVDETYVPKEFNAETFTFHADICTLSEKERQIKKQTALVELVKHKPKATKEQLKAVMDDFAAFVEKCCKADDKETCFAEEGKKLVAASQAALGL

CC1(C)C(/C=C/C=C/C=C/C=C2\N(CCCCS(=O)(=O)O)c3ccc4ccccc4c3C2(C)C)=[N+](CCCCS(=O)(=O)[O-])c2ccc3ccccc3c21 [ICG, indocyanine green]
brightness (quantum yield) [1]: 0.3%

C[N+]1=C(/C=C/C=C/C=C2/N(CCCCCC(=O)NCCCC[C@@H](NC(=O)CCC(C(=O)O)N3CCN(CC(=O)O)CCN(CC(=O)O)CCN(CC(=O)O)CC3)C(=O)N[C@H](Cc3ccc(O)c(I)c3)C(=O)N[C@H](Cc3ccc(O)c(I)c3)C(=O)N[C@H](CCCCNC(=O)CCCCCCC(=O)NCCCC[C@H](NC(=O)N[C@@H](CCC(=O)O)C(=O)O)C(=O)O)C(=O)O)c3ccc(S(=O)(=O)O)cc3C2(C)C)C(C)(C)c2cc(S(=O)(=O)[O-])ccc21 (stereo partly drawn) [PSMA-I&F, DOTAGA-D-Lys(Nε-Sulfo-Cy5)-D-(3-iodo)Tyr-D-(3-iodo)Tyr-D-Lys(Nε-Sub-KuE)]
fraction unbound [2]: 0.017 | Comparative ligand internalization by fluorescence microscopy [3]: highly efficient and identical ligand internalization | Intraoperative and ex vivo fluorescence detection of tumor xenograft (LNCaP xenografts): sensitive in vivo detection of the PSMA-I&F–positive tumor xenograft with good contrast to the surrounding tissue

CN1/C(=C/C=C/C=C/C2=[N+](CCCCCC(=O)O)c3ccc(S(=O)(=O)[O-])cc3C2(C)C)C(C)(C)c2cc(S(=O)(=O)O)ccc21 [Sulfo-Cy5]
brightness [4]: 51 × 10^3 M^−1⋅cm^−1

IRDye800CW-^68Ga-HBED-CC-KuE
tumor-to-blood ratio (LNCaP tumors): 4.5 | tumor-to-intestines ratio (LNCaP tumors): 5.7 | tumor-to-liver ratio (LNCaP tumors): 4.9 | tumor-to-muscle ratio (LNCaP tumors): 4.8

^111In-DOTA-Lys(Nε-IRDye800CW)-Sub-KuE
Increase of tracer uptake in the excretion organs and the tumor xenograft (PC-3 PIP) compared with parent compound [5]: 2-4 factor | tumor-to-blood ratio [5]: 1.4 | tumor-to-intestines ratio [5]: 7.7 | tumor-to-liver ratio [5]: 5.8 | tumor-to-muscle ratio [5]: 11.6
